# Reference: patent US20230203142A1, “TREATMENT OF METABOLIC DISORDERS THROUGH THE TARGETING OF A NOVEL CIRCULATING HORMONE COMPLEX” (The President and Fellows of Harvard College, priority 2020, published 2023)
# How the values were obtained:
# Human NDPK-A = target: T1, Human NDPK-A (Homo sapiens, UniProt P15531); assay: Microscale Thermophoresis (MST) one-to-one protein interaction with NDPK; settings: recombinant proteins, binding to NDPK
# T1 construct: purchased Acro Biosystems NM1-H5147
# Procedure: Additionally, one-to-one recombinant protein interaction assays were performed using Microscale Thermophoresis (MST) to independently validate the interactions between each of the proposed complex components. MST is a technology for the interaction analysis of biomolecules. MST is the directed movement of particles in a microscopic temperature gradient. Any change of the hydration shell of biomolecules due to changes in their structure/conformation results in a relative change of the movement along the temperature gradient and is used to determine binding affinities. MST allows measurement of interactions directly in solution without the need of immobilization to a surface (immobilization-free technology).
# To perform this technique, proteins were desalted and buffer exchanged into PBS prior to labeling. […] Experiments were conducted independently with each of NDPK and ADK labeled with each kit (i.e., experiments were performed with lysine-labeled, cysteine-labeled, and His-labeled versions of each protein to confirm the site of labeling was not influencing detected interaction). […] Concentration of labeled proteins ranged from 12 nM to 20 nM, as determined by MST quantification to obtain a fluorescence intensity of ˜350 from each capillary tube. […]
# recombinant NDPK = target: T2, recombinant NDPK (Homo sapiens, UniProt P15531); assay: Recombinant kinase activity assay, NDPK (ADP-Glo/Kinase-Glo); assay type: biochemical; settings: recombinant NDPK plus the added component
# T2 construct: purchased Acro Biosystems NM1-H5147
# Procedure: (§1) An on-bead kinase assay was developed to measure the activity of endogenous NDPK and ADK pulled down from serum using a-Ab or c-Ab conjugated beads. Both NDPK and ADK are bi-directional kinases that will produce ATP or ADP depending on the substrates provided (FIGS. 4B-C). Kinase activity assays were performed in 384-well plates in reaction buffer (PBS with 0.1% BSA, 0.01% F-127, 5 mM MgCl2). Experiments with recombinant proteins were performed at final concentrations of 40 μg/ml for ADK and FABP4, and 20 ug/ml for NDPK, and a reaction volume of 10 μl. Antibodies were used at a final concentration of 80 ug/ml. Substrates were added in equimolar ratios depending on the kinase being assayed and the direction of the reaction in serial dose responses, with the highest concentration of 5 μM. Proteins and substrates were incubated for 1 hr at room temperature, and ADP and ATP production were monitored using ADP-Glo and Kinase-Glo kits, respectively, according the manufacturer instructions (V6930 and V6711 Promega, USA). Luminescence was quantified using a SpectraMax Paradigm plate reader 30 min after the addition of substrate. Consistent with the MS results, ADK activity, as measured by generation of ATP, was specifically observed in samples pulled down with a-Ab but not c-Ab (FIG. 5A). […] To test this possibility, the ATP and ADP generating activity of recombinant ADK was assessed in the presence of the proposed complex components.
# WT NOD mice = assay: Acute FABP4 administration; assay type: in vivo, mouse; settings: 20 minutes post-injection, vs vehicle-injected controls
# Procedure: (§2) Given the essential role for appropriate beta cell function and insulin secretion in the pathogenesis of diabetes, the pancreata of FABP4 deficient (FABP4^−/−) mice were examined for beta cell mass and insulin content. Animal care and experimental procedures were performed with approval from animal care committees of Harvard University. All mice were housed on a 12-hour light/dark cycle with ad libitum access to chow (PicoLab 5058 LabDiet) and water. FABP4−/− and WT mice were littermates obtained from heterozygous breeding. High fat diet (HFD) fed mice were provided ad libitum access to HFD (60% kcal from fat; Research Diets Inc., D12492i) for 14 weeks beginning at 4 weeks of age. Pancreata and isolated islets were obtained from 7-8-week-old male mice. Blood was collected every other week for 6 hour fasting plasma insulin and FABP4 levels. For acute FABP4 treatment, 10 μg of human recombinant FABP4 (produced in-house) or sterile PBS was injected intraperitoneally. Blood was collected from the tail vein at 0, 10, 20, 30, 60, 120, 240- and 360-minutes post injection for measurement of blood glucose, plasma insulin, and FABP4 levels.
# WT mice = assay: Acute FABP4 administration; assay type: in vivo, mouse; settings: 20 minutes post-injection, vs vehicle-injected controls
# Procedure: as §2
# recombinant ADK = target: T3, recombinant ADK (Homo sapiens, UniProt P55263); assay: Recombinant kinase activity assay, ADK (Kinase-Glo); assay type: biochemical; settings: recombinant ADK plus the added component
# T3 construct: purchased Novus Biologicals or R&D Systems NBP1-44382 or 8024-AK-025
# Procedure: as §1
# primary mouse islets = assay: Glucose-stimulated insulin secretion (GSIS), mouse islets; assay type: cell-based
# Procedure: Primary islet isolation from mice was performed as previously described (Batchuluun et al., 2018; Prentice et al., 2014) and GSIS was assessed following acute treatment with NDPK-ADK in the presence or absence of FABP4. Insulin secretion assays were performed as previously described (Prentice et al., 2014). For primary islets, 20 islets were hand-picked into 1.5 ml tubes, washed twice with Krebs Ringer Buffer (KRB) without glucose, and pre-incubated in 500 μl low glucose (LG; 2.8 mM) KRB for 1 hour at 37° C. KRB was then removed and 250 μl of fresh LG KRB added. Islets were incubated for 20 minutes at 37° C. Supernatant was collected and 250 μl high glucose (HG; 16.7 mM) KRB added. Islets were incubated for 20 minutes at 37° C. In conditions where KCl was used, HG KRB was collected, and 250 μl KC1 (16.7 mM glucose, 30 mM KCl) KRB added. Islets were incubated for 20 minutes at 37° C., and supernatant collected. Following the stimulation protocol, cells were lysed in 100 μl acid ethanol (70% ethanol, 1% HCl in water) and stored at 4° C. overnight. Samples were evaporated using a SpeedVac until dried, and resuspended in 60 μl ultrapure water. DNA was quantified by Nanodrop (ThermoFisher, USA). Insulin from supernatant was quantified using insulin HTRF (Insulin Ultrasensitive Assay kit 62IN2PEH; Cisbio, USA).
# T2 sequence (P15531 whole entry): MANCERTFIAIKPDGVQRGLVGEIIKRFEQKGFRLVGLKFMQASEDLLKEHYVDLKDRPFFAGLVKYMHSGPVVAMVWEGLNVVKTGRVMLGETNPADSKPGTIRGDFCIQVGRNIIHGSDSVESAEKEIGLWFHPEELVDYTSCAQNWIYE
# T1 sequence (P15531 whole entry): as above
Molecule,Kd (Human NDPK-A) [nM],activity of NDPK to generate ADP (recombinant NDPK),capacity of NDPK to produce ATP (recombinant NDPK),plasma insulin (WT NOD mice),blood glucose levels (WT mice),ADK activity to generate ATP (recombinant ADK),GSIS (primary mouse islets; primary / WT mouse islets),"NDPK-ADK-enhanced GSIS response (primary mouse islets; primary mouse islets, added to NDPK-ADK)"
"ADK: recombinant human adenosine kinase (Novus Biologicals or R&D Systems) (protein, listed as Homo sapiens) MAAAEEEPKPKKLKVEAPQALRENILFGMGNPLLDISAVVDKDFLDKYSLKPNDQILAEDKHKELFDELVKKFKVEYHAGGSTQNSIKVAQWMIQQPHKAATFFGCIGIDKFGEILKRKAAEAHVDAHYYEQNEQPTGTCAACITGDNRSLIANLAAANCYKKEKHLDLEKNWMLVEKARVCYIAGFFLTVSPESVLKVAHHASENNRIFTLNLSAPFISQFYKESLMKVMPYVDILFGNETEAATFAREQGFETKDIKEIAKKTQALPKMNSKRQRIVIFTQGRDDTIMATESEVTAFAVLDQDQKEIIDTNGAGDAFVGGFLSQLVSDKPLTECIRAGHYAASIIIRRTGCTFPEKPDFH",~1.8,significantly reduced,no effect,–,–,–,–,–
FABP4: human recombinant FABP4 (produced in-house) (protein) CDAFVGTWKLVSSENFDDYMKEVGVGFATRKVAGMAKPNMIISVNGDVITIKSESTFKNTEISFILGQEFDEVTADDRKVKSTITLDGGVLVHVQKWDGKSTTIKRKREDDKLVVECVMKGVTSTRVYERA,–,not further influenced,no effect,significant reduction,significantly increased,significantly increased,no effect,significantly blunted
